# Results: patent US20250281630A1 (TORAY INDUSTRIES, published 2025)
# T1: human CAPRIN-1 on the cell membrane surface of human cancer cells (human, UniProt Q14444 2-709)
# T1 construct: whole, on cells
# T1 sequence (looked up): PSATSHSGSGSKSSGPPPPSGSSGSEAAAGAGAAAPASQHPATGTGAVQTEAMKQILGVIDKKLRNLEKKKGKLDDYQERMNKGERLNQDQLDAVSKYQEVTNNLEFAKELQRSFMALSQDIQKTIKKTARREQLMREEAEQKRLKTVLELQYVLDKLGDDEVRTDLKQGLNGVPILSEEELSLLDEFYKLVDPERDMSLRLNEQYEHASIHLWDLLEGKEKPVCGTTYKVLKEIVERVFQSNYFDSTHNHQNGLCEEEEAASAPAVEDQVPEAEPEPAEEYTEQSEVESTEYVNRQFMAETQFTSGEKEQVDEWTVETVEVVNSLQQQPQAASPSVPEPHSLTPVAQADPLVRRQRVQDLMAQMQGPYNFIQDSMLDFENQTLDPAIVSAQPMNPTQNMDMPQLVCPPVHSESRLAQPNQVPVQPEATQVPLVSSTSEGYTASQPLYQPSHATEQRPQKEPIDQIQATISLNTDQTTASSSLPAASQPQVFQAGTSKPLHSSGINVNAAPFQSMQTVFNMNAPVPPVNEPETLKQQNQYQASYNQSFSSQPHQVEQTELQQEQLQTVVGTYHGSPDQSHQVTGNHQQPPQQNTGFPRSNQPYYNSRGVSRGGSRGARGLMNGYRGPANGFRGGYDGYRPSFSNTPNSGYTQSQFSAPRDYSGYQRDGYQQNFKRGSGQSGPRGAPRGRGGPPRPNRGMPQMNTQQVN
# T2: mouse CAPRIN-1 on mouse cancer cells (mouse, UniProt Q60865 2-707)
# T2 construct: whole, on cells
# T2 sequence (looked up): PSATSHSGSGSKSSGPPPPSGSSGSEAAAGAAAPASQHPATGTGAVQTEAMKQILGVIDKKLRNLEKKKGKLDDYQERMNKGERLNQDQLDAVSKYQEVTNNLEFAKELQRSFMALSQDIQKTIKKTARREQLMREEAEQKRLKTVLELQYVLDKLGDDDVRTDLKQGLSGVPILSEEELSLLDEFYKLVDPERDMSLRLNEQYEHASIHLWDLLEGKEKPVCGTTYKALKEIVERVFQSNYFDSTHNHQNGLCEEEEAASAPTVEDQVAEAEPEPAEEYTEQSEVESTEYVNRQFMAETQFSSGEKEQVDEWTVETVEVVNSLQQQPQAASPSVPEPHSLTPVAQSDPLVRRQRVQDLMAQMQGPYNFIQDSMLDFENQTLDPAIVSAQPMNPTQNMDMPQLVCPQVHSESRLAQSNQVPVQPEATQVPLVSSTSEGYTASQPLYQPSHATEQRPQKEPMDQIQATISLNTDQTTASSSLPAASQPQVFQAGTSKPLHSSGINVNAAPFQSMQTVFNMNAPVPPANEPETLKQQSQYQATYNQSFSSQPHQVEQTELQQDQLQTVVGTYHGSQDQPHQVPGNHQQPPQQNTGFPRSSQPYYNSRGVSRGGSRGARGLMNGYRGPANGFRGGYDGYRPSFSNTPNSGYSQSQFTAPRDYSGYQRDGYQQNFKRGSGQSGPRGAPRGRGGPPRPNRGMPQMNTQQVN
# Key:
# [1] = biological target: T1, human CAPRIN-1 on the cell membrane …; assay: flow cytometry, BT474 cells
# Experimental: The tube was left at 4° C. for 1 hour. After washing with PBS, Alexa 488-labeled anti-rabbit IgG (H+L) diluted 100-fold with PBS(-) containing 0.5% FBS (0.5% FBS-PBS(-)) was added thereto, and the tube was left at 4° C. for 1 hour. After washing with 0.5% FBS-PBS(-), the cells were reacted with BD Horizon Fixable Viability Stain (FVS) Reagents (FVS450, Becton, Dickinson and Company) to stain dead cells, and the fluorescence intensity was then measured using FACSFortessa™ (Becton, Dickinson and Company).
# [2] = biological target: T2, mouse CAPRIN-1 on mouse cancer cells; assay: flow cytometry, Renca and 4T1 cells
Binder,binding result [1],binding result [2]
"Conjugate 42 (antibody, human IgG1, V domains shown, human IgG1 constant regions; also called conjugate with MMAE using humanized antibody #36) VH: EVQLVESGGGLVQPGGSLRLSCAASGFSLSSHSLGWVRQAPGKGLEWIGDIRSGGSAYYANWAKGRFTISRDNSKNTLYLQMNSLRAEDTAVYYCTRTNGPSDLTNRLDLWGQGTLVTVSS VL: QVLTQSPSSLSASVGDRVTINCQASQSLYNNENLAWFQQKPGKVPKRLIYGASTLASGVSSRFSGSGSGTEFTLTISSLQCEDFAIYYCLGEFSCGSADCFAFGGGTKVEIK",binds,binds
"Conjugate 8 (antibody, human IgG1, V domains shown, human IgG1 constant regions; also called conjugate with MMAE using humanized antibody #2) VH: EQSLVESGGGLVQPGGSLRLSCAASGFSLSSHSLGWVRQAPGKGLEWIGDIRSGGSAYYANWAKGRFTISRDNSKNTLYLQMNSLRAEDTAVYYCTRTNGPSDLTNRLDLWGQGTLVTVSS VL: QVLTQSPSSLSASVGDRVTINCQASQSLYNNENLAWFQQKPGKVPKRLIYGASTLASGVSSRFSGSGSGTEFTLTISSLQCEDFAIYYCLGEFSCGSADCFAFGGGTKVEIK",binds,binds
"Conjugate 43 (antibody, human IgG1, V domains shown, human IgG1 constant regions; also called conjugate with MMAE using humanized antibody #37) VH: EVQLVESGGGLVQPGGSLRLSCAASGFSLSSHSLGWVRQAPGKGLEWIGDIRSGGSAYYANWAKGRFTISRDNSKNTLYLQMNSLRAEDTAVYFCTRTNGPSDLTNRLDLWGQGTLVTVSS VL: QVLTQSPSSLSASVGDRVTINCQASQSLYNNENLAWFQQKPGKVPKRLIYGASTLASGVSSRFSGSGSGTEFTLTISSLQCEDFAIYYCLGEFSCGSADCFAFGGGTKVEIK",binds,binds
"Conjugate 88 (antibody, V domains shown, human IgG1 constant regions; also called conjugate with MMAE using humanized antibody #2) VH: EQSLVESGGGLVQPGGSLRLSCAASGFSLSSHSLGWVRQAPGKGLEWIGDIRSGGSAYYANWAKGRFTISRDNSKNTLYLQMNSLRAEDTAVYYCTRTNGPSDLTNRLDLWGQGTLVTVSS VL: QVLTQSPSSLSASVGDRVTINCQASQSLYNNENLAWFQQKPGKVPKRLIYGASTLASGVSSRFSGSGSGTEFTLTISSLQCEDFAIYYCLGEFSCGSADCFAFGGGTKVEIK",binds,binds
"Conjugate 123 (antibody, V domains shown, human IgG1 constant regions; also called conjugate with MMAE using humanized antibody #37) VH: EVQLVESGGGLVQPGGSLRLSCAASGFSLSSHSLGWVRQAPGKGLEWIGDIRSGGSAYYANWAKGRFTISRDNSKNTLYLQMNSLRAEDTAVYFCTRTNGPSDLTNRLDLWGQGTLVTVSS VL: QVLTQSPSSLSASVGDRVTINCQASQSLYNNENLAWFQQKPGKVPKRLIYGASTLASGVSSRFSGSGSGTEFTLTISSLQCEDFAIYYCLGEFSCGSADCFAFGGGTKVEIK",binds,binds
"Conjugate 15 (antibody, human IgG1, V domains shown, human IgG1 constant regions; also called conjugate with MMAE using humanized antibody #9) VH: AVTLDESGGGLQTPGGALSLVCKASGFTFSGYDMLWVRQAPGKGLEWVAGIGSTGGGTDYGAAVKGRATISRDNGQSTVRLQLNNLRAEDTATYYCAKVAGGCNSGYCRDSPGSIDAWGHGTEVIVS VL: AVTQQPASVSANPGETVKITCSGGGSRNYYGWYQQKSPGSVPVTVIYYDDQRPSNIPSRFSGALSGSTSTLTITGVQADDEAVYFCGSADSNTYEGSFGAGTTLTVL",binds,binds
"Conjugate 19 (antibody, human IgG1, V domains shown, human IgG1 constant regions; also called conjugate with MMAE using humanized antibody #13) VH: GAELVRSGASVKMSCKASGYSFTDYNMYWVKQTPGQGLEWIGYIYPGNGGTNYNQKFKGKATLTADTSSSTAYMQISSLTSEDSAVYFCARDYDDGGYAMDYWGQGTTVTVSS VL: DIQMTQSPASLSASVGETVTITCRASGNIHNYLTWYQQKQGKSPQLLVYNAKTLADGVPSRFSGSGSGTQYSLKINRLQPEDFGSYYCQHFWNIPWTFGGGTKLNSR",binds,binds
"Conjugate 20 (antibody, human IgG1, V domains shown, human IgG1 constant regions; also called conjugate with MMAE using humanized antibody #14) VH: DAELVKPGASVKISCKASGYTFTDHSIHWVQQKPEQGLEWIGYISPGNGNIKYNEKFKGKATLTADKSSSTAYMQLNSLTSEDSAVYFCKRSLGRGGPYYFDYWGQGTTVTVSS VL: DIVLTQAAPSLPVTPGESVSISCRSSKSLLHSNGNTYLYWFLQRPGQSPQLLIYRMSNLASGVPDRFSGSGSGTAFTLRISRVEAEDVGVYYCMQHREYPVTFGSGPN",binds,binds
"Conjugate 44 (antibody, human IgG1, V domains shown, human IgG1 constant regions; also called conjugate with MMAE using humanized antibody #38) VH: EVQLVESGGGLVQPGGSLRLSCAASGFSLSSHSLGWVRQAPGKGLEWIGDIRSGGSAYYANWAKGRFTISRDNSKNTLYLQMNSLRAEDTAVYYCTRTNGPSDLTNRLDLWGQGTLVTVSS VL: EQVLTQSPSSLSASVGDRVTINCQASQSLYNNENLAWFQQKPGKVPKRLIYGASTLASGVSSRFSGSGSGTEFTLTISNLQPEDFAIYYCLGEFSCGSADCFAFGGGTKVEIK",binds,binds
"Conjugate 45 (antibody, human IgG1, V domains shown, human IgG1 constant regions; also called conjugate with MMAE using humanized antibody #39) VH: EVQLVESGGGLVQPGGSLRLSCAASGFSLSSHSLGWVRQAPGKGLEWIGDIRSGGSAYYANWAKGRFTISRDNSKNTLYLQMNSLRAEDTAVYFCTRTNGPSDLTNRLDLWGQGTLVTVSS VL: EIVLTQSPSSLSASVGDRVTINCQASQSLYNNENLAWFQQKPGKVPKRLIYGASTLASGVSSRFSGSGSGTEFTLTISNLQPEDFATYYCLGEFSCGSADCFAFGGGTKVEIK",binds,binds
"Conjugate 46 (antibody, human IgG1, V domains shown, human IgG1 constant regions; also called conjugate with MMAE using humanized antibody #40) VH: EVQLVESGGGLVQPGGSLRLSCAASGFSLSSHSLGWVRQAPGKGLEWIGDIRSGGSAYYANWAKGRFTISRDNSKNTLYLQMNSLRAEDTAVYYCTRTNGPSDLTNRLDLWGQGTLVTVSS VL: EIVLTQSPSSLSASVGDRVTINCQASQSLYNNENLAWFQQKPGKVPKRLIYGASTLASGVSSRFSGSGSGTEFTLTISNLQPEDFATYYCLGEFSCGSADCFAFGGGTKVEIK",binds,binds
"Conjugate 47 (antibody, human IgG1, V domains shown, human IgG1 constant regions; also called conjugate with MMAE using humanized antibody #41) VH: EVQLVESGGGLVQPGGSLRLSCAASGFSLSSHSLGWVRQAPGKGLEWIGDIRSGGSAYYANWAKGRFTISRDNSKNTLYLQMNSLRAEDTAVYFCTRTNGPSDLTNRLDLWGQGTLVTVSS VL: EQVLTQSPSSLSASVGDRVTINCQASQSLYNNENLAWFQQKPGKVPKRLIYGASTLASGVSSRFSGSGSGTEFTLTISNLQPEDFAIYYCLGEFSCGSADCFAFGGGTKVEIK",binds,binds
"Conjugate 125 (antibody, V domains shown, human IgG1 constant regions; also called conjugate with MMAE using humanized antibody #39) VH: EVQLVESGGGLVQPGGSLRLSCAASGFSLSSHSLGWVRQAPGKGLEWIGDIRSGGSAYYANWAKGRFTISRDNSKNTLYLQMNSLRAEDTAVYFCTRTNGPSDLTNRLDLWGQGTLVTVSS VL: EIVLTQSPSSLSASVGDRVTINCQASQSLYNNENLAWFQQKPGKVPKRLIYGASTLASGVSSRFSGSGSGTEFTLTISNLQPEDFATYYCLGEFSCGSADCFAFGGGTKVEIK",binds,binds
"Conjugate 126 (antibody, V domains shown, human IgG1 constant regions; also called conjugate with MMAE using humanized antibody #40) VH: EVQLVESGGGLVQPGGSLRLSCAASGFSLSSHSLGWVRQAPGKGLEWIGDIRSGGSAYYANWAKGRFTISRDNSKNTLYLQMNSLRAEDTAVYYCTRTNGPSDLTNRLDLWGQGTLVTVSS VL: EIVLTQSPSSLSASVGDRVTINCQASQSLYNNENLAWFQQKPGKVPKRLIYGASTLASGVSSRFSGSGSGTEFTLTISNLQPEDFATYYCLGEFSCGSADCFAFGGGTKVEIK",binds,binds
"Conjugate 127 (antibody, V domains shown, human IgG1 constant regions; also called conjugate with MMAE using humanized antibody #41) VH: EVQLVESGGGLVQPGGSLRLSCAASGFSLSSHSLGWVRQAPGKGLEWIGDIRSGGSAYYANWAKGRFTISRDNSKNTLYLQMNSLRAEDTAVYFCTRTNGPSDLTNRLDLWGQGTLVTVSS VL: EQVLTQSPSSLSASVGDRVTINCQASQSLYNNENLAWFQQKPGKVPKRLIYGASTLASGVSSRFSGSGSGTEFTLTISNLQPEDFAIYYCLGEFSCGSADCFAFGGGTKVEIK",binds,binds
